T1: GST-tagged human HPS4 (residues 1-708) (human, UniProt Q9NQG7 1-708)
T1 sequence: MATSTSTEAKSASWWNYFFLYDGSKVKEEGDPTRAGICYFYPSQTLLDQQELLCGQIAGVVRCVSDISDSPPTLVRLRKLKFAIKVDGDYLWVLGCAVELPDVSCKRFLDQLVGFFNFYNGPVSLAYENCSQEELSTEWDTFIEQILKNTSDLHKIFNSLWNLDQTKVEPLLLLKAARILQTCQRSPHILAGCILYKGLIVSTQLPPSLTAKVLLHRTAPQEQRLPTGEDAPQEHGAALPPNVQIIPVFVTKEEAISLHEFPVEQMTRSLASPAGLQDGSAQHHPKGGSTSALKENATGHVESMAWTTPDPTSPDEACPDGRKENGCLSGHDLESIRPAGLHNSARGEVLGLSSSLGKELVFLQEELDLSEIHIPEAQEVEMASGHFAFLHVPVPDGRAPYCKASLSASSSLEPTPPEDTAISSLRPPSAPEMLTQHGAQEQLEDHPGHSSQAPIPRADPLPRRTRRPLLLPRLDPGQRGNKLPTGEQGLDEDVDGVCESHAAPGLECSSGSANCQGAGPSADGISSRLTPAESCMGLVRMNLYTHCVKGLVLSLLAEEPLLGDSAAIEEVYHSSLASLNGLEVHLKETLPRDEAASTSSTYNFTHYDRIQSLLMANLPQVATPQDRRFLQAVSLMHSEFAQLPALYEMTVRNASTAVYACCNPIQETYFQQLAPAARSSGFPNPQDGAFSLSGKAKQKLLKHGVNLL

T2: Flag-tagged HPS4 wild-type (human, UniProt Q9NQG7 1-708)
T2 sequence: T1 sequence

B1: HPS1 (untagged human HPS1, residues 1-700) (natural protein)
chain: MKCVLVATEGAEVLFYWTDQEFEESLRLKFGQSENEEEELPALEDQLSTLLAPVIISSMTMLEKLSDTYTCFSTENGNFLYVLHLFGECLFIAINGDHTESEGDLRRKLYVLKYLFEVHFGLVTVDGHLIRKELRPPDLAQRVQLWEHFQSLLWTYSRLREQEQCFAVEALERLIHPQLCELCIEALERHVIQAVNTSPERGGEEALHAFLLVHSKLLAFYSSHSASSLRPADLLALILLVQDLYPSESTAEDDIQPSPRRARSSQNIPVQQAWSPHSTGPTGGSSAETETDSFSLPEEYFTPAPSPGDQSSGSTIWLEGGTPPMDALQIAEDTLQTLVPHCPVPSGPRRIFLDANVKESYCPLVPHTMYCLPLWQGINLVLLTRSPSAPLALVLSQLMDGFSMLEKKLKEGPEPGASLRSQPLVGDLRQRMDKFVKNRGAQEIQSTWLEFKAKAFSKSEPGSSWELLQACGKLKRQLCAIYRLNFLTTAPSRGGPHLPQHLQDQVQRLMREKLTDWKDFLLVKSRRNITMVSYLEDFPGLVHFIYVDRTTGQMVAPSLNCSQKTSSELGKGPLAAFVKTKVWSLIQLARRYLQKGYTTLLFQEGDFYCSYFLWFENDMGYKLQMIEVPVLSDDSVPIGMLGGDYYRKLLRYYSKNRPTEAVRCYELLALHLSVIPTDLLVQQAGQLARRLWEASRIPLL
B2: His-tagged mouse Rab9A Q66L (residues 2-199) (natural protein)
chain: AGKSSLFKIILLGDGGVGKSSLMNRYVTNKFDSQLFHTIGVEFLNKDLEVDGHFVTMQIWDTAGLERFRSLRTPFYRGSDCCLLTFSVDDSQSFQNLSNWKKEFIYYADVKEPESFPFVILGNKTDIKERQVSTEEAQAWCKDNGDYPYFETSAKDSTNVAAAFEEAVRRILATEDRSEHLIQTDTVNLHRKPKPNSS
B3: GST-tagged human HPS4 Δ289-518 (natural protein)
chain: MATSTSTEAKSASWWNYFFLYDGSKVKEEGDPTRAGICYFYPSQTLLDQQELLCGQIAGVVRCVSDISDSPPTLVRLRKLKFAIKVDGDYLWVLGCAVELPDVSCKRFLDQLVGFFNFYNGPVSLAYENCSQEELSTEWDTFIEQILKNTSDLHKIFNSLWNLDQTKVEPLLLLKAARILQTCQRSPHILAGCILYKGLIVSTQLPPSLTAKVLLHRTAPQEQRLPTGEDAPQEHGAALPPNVQIIPVFVTKEEAISLHEFPVEQMTRSLASPAGLQDGSAQHHPKGGGPSADGISSRLTPAESCMGLVRMNLYTHCVKGLVLSLLAEEPLLGDSAAIEEVYHSSLASLNGLEVHLKETLPRDEAASTSSTYNFTHYDRIQSLLMANLPQVATPQDRRFLQAVSLMHSEFAQLPALYEMTVRNASTAVYACCNPIQETYFQQLAPAARSSGFPNPQDGAFSLSGKAKQKLLKHGVNLL

Assays:
[1] = target: T1, GST-tagged human HPS4 (residues 1-708); test: SEC
[2] = target: B3; test: SEC
[3] = target: T2, Flag-tagged HPS4 wild-type; test: pull-down
[4] = target: B1; test: cryo-EM structure

Binder: B1
binding result [1]: binds
stoichiometry N [2]: 1

Binder: B2
binding result [3]: binds

Binder: B3
binding result [4]: binds

— paper PMC11947305 (Nature Communications, 2025)
